Target: porcine dentin sialoprotein (DSP) (porcine)
Test: SDS-PAGE and Western blot under oxidizing

- stoichiometry N: 2
Substance: porcine dentin sialoprotein (DSP) (natural protein)

Source: PMC2821091
